{
  "source": "paper PMC5986797",
  "about": "“Laminin heparin-binding peptides bind to several growth factors and enhance diabetic wound healing” (Nature Communications, 2018)",
  "key": {"[1]": {"target": "laminin peptide LAMA3_(3043–3067) (human) (UniProt Q16787)", "sequence (Q16787 3043-3067)": "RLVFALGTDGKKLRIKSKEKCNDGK"}, "[2]": {"target": "laminin peptide LAMA5_(3417–3436) (human) (UniProt O15230)", "sequence (O15230 3417-3436)": "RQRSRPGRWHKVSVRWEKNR"}, "[3]": {"target": "recombinant human laminin-521 (human) (UniProt O15230)", "assay": "SPR; laminin-521 immobilised by amine coupling on a C1 chip (~2000 RU); GF flown at 20 μL/min in 0.01 M HEPES pH 7.4, 0.15 M NaCl, 0.005% surfactant P20; Langmuir binding kinetics"}, "[4]": {"target": "recombinant laminin LAMA3_(2928–3150) protein (human) (UniProt Q16787)", "sequence (Q16787 2928-3150)": "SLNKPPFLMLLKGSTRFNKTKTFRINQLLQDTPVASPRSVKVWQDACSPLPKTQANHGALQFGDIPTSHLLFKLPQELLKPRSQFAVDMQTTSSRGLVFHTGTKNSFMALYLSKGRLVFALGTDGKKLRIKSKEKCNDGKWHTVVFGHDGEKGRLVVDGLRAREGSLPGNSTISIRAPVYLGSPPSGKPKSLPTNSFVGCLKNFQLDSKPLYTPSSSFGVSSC", "assay": "SPR; LAMA3 2928–3150 immobilised by amine coupling on a C1 chip (~1000 RU); GF flown at 20 μL/min in 0.01 M HEPES pH 7.4, 0.15 M NaCl, 0.005% surfactant P20; Langmuir binding kinetics"}},
  "data": [
    {"substance": "vascular endothelial cell growth factor VEGF-A165 (ligand)", "values": [
      {"measurement": "cumulative release of VEGF-A165 after 5 days from a fibrin matrix with covalently incorporated α2PI1–8-LAMA3 (3043–3067) (without peptide >85% released after 24 h)", "setting": "[1]", "result": 25, "unit": "%"},
      {"measurement": "cumulative release of VEGF-A165 after 5 days from a fibrin matrix with covalently incorporated α2PI1–8-LAMA5 (3417–3436) (without peptide >85% released after 24 h)", "setting": "[2]", "result": 31, "unit": "%"},
      {"measurement": "Kd", "setting": "[3]", "result": 5.8, "unit": "nM"},
      {"measurement": "Kd", "setting": "[4]", "result": 1.2, "unit": "nM"}
    ]}
  ]
}
